Data: paper PMC3068998

B1: SV2A: N498Q (protein)
parent chain: MEEGFRDRAAFIRGAKDIAKEVKKHAAKKVVKGLDRVQDEYSRRSYSRFEEEEDDDDFPAPADGYYRGEGAQDEEEGGASSDATEGHDEDDEIYEGEYQGIPRAESGGKGERMADGAPLAGVRGGLSDGEGPPGGRGEAQRRKDREELAQQYETILRECGHGRFQWTLYFVLGLALMADGVEVFVVGFVLPSAEKDMCLSDSNKGMLGLIVYLGMMVGAFLWGGLADRLGRRQCLLISLSVNSVFAFFSSFVQGYGTFLFCRLLSGVGIGGSIPIVFSYFSEFLAQEKRGEHLSWLCMFWMIGGVYAAAMAWAIIPHYGWSFQMGSAYQFHSWRVFVLVCAFPSVFAIGALTTQPESPRFFLENGKHDEAWMVLKQVHDTNMRAKGHPERVFSVTHIKTIHQEDELIEIQSDTGTWYQRWGVRALSLGGQVWGNFLSCFSPEYRRITLMMMGVWFTMSFSYYGLTVWFPDMIRHLQAVDYAARTKVFPGERVEHVTFNFTLENQIHRGGQYFNDKFIGLRLKSVSFEDSLFEECYFEDVTSSNTFFRNCTFINTVFYNTDLFEYKFVNSRLVNSTFLHNKEGCPLDVTGTGEGAYMVYFVSFLGTLAVLPGNIVSALLMDKIGRLRMLAGSSVLSCVSCFFLSFGNSESAMIALLCLFGGVSIASWNALDVLTVELYPSDKRTTAFGFLNALCKLAAVLGISIFTSFVGITKAAPILFASAALALGSSLALKLPETRGQVLQ
B2: SV2A: N548Q (protein)
parent chain: B1 parent chain

Details: glycan lost

Protein | other: toxin entry into neurons
B1 | no change
B2 | no change
